From US10532083B2, “Methods for inducing differentiation or conversion of white adipocytes and/or preadipocytes to brown adipocites using FGF8” (Technische Universität München, priority 2014, dated 2020)

What was measured:
[1] = test system: subcutaneous, inguinal white adipocytes; experiment: Ucp1 / brown adipocyte marker mRNA (qPCR) in immortalized inguinal white adipocytes treated with FGFs; format: cell-based, murine
Procedure: Screening paracrine FGFs for a browning potential. A, B—Screening of all paracrine FGFs in immortalized white adipocytes. Subcutaneous, inguinal and visceral, epididymal white adipocytes were grown to confluence in Dulbecco's modified Eagle's medium with 4.5 g/l glucose, supplemented with 20 nmol/l insulin, 1 nmol/l triiodothyronine, 20% fetal bovine serum, and penicillin/streptomycin. Upon reaching confluence, differentiation was induced with 500 mmol/l isobutylmethylxanthine, 250 mmol/l indomethacine, and 2 mg/ml dexamethasone for 24 hours. Subsequently, members of the paracrine FGF protein family were added to the medium for the following six days. The medium and the FGF indicated were changed every 48 hours. Untreated cells served as a negative control. At the end of the differentiation process total RNA was isolated using TRIzol reagents, RNA quality and concentration was measured by photometric analysis, and 5 μg of total RNA was reverse-transcribed to cDNA. Finally, quantitative analysis of UCP-1 mRNA expression was performed. A bar graph analysis including the SEM of 3 to 6 independent experiments is shown. […] B—Four different splicing forms of the Fgf8 gene were compared by quantifying Ucp1 mRNA expression in fully differentiated white adipocytes. UCP-1 mRNA abundance is shown in percent of the FGF8b value. Fgf8b and Fgf8f were able to increase expression in epididymal adipocytes. C—Illustration depicting the different exon usage that characterizes the FGF8 spliceforms a, b, e, and f.
Dose dependency of Ffg8b action. A, B—Subcutaneous, inguinal and visceral, epididymal white adipocytes were grown to confluence in Dulbecco's modified Eagle's medium with 4.5 g/l glucose, supplemented with 20 nmol/l insulin, 1 nmol/l triiodothyronine, 20% fetal bovine serum, and penicillin/streptomycin. Upon reaching confluence, differentiation was induced with 500 mmol/l isobutylmethylxanthine, 250 mmol/l indomethacine, and 2 mg/ml dexamethasone for 24 hours. Subsequently, FGF8b in five indicated concentrations were added to the medium for the following six days. The medium and the FGF8b were changed every 48 hours. Untreated cells served as a negative control. At the end of the differentiation process total RNA was isolated using TRIzol reagents, RNA quality and concentration was measured by photometric analysis, and 5 μg of total RNA was reverse-transcribed to cDNA. Finally, quantitative analysis of UCP-1 mRNA expression was performed. FGF8b induces Ucp1 mRNA abundance in inguinal and epididymal adipocytes. Epididymal fat cells were more dose dependently responsive to Fgf8b treatment as compared to inguinal cells. The latter were responsive to FGF8b treatment above the threshold indicated. B—The absolute increase of several genes typical for brown fat cells.
Treatment timecourse experiment. A, B—Subcutaneous, inguinal and visceral, epididymal white adipocytes were grown to confluence (prolif. denotes proliferation period) in Dulbecco's modified Eagle's medium with 4.5 g/l glucose, supplemented with 20 nmol/l insulin, 1 nmol/l triiodothyronine, 20% fetal bovine serum, and penicillin/streptomycin. Upon reaching confluence, differentiation was induced with 500 mmol/l isobutylmethylxanthine, 250 mmol/l indomethacine, and 2 mg/ml dexamethasone for 24 hours (induction). Subsequently, the cells were cultured for another six days (differentiation). At the end of the differentiation process total RNA was isolated using TRIzol reagents, RNA quality and concentration was measured by photometric analysis, and 5 μg of total RNA was reverse-transcribed to cDNA. Finally, quantitative analysis of UCP-1 mRNA expression was performed. Untreated cells served as a negative control. A bar graph analysis including the SEM of 5 independent experiments is shown. A—Epididymal fat cells were treated with FGF8b during different time windows as given by black squares indicating one day of treatment each. […]

inguinal adipose tissue = experiment: FGF8b releasing pellet implanted into inguinal (subcutaneous) adipose tissue in vivo; parameters: species or system 129Sv/ev mice; settings: FGF8b pellets implanted into inguinal adipose tissue
Procedure: Pellets 1.5 mm in diameter were fabricated from a biodegradable matrix to locally release 100 ng FGF8b per day for 21 days (Innovative Research of America, Sarasota, Fla., USA). […] To implant a pellet into the subcutaneous adipose tissue, a mouse of the 129Sv/ev strain was anesthetized, abdominal fur removed and the pellet pushed into the depot through a short cut in the skin. To target the visceral adipose tissue, the pellet was introduced through a small cut each into skin and abdominal wall and placed between lobes of epididymal adipose tissue. Mice were kept in a specific pathogen free barrier facility at room temperature in a 12:12 hour light:dark cycle with free access to food and water. Three weeks after implantation mice were killed by carbon dioxide exposure and dissected. Blood parameters were analyzed with an automated clinical chemistry analyzer (Piccolo xpress system, Abaxis, Darmstadt, Germany). All animal experiments were performed according to the German animal welfare law (permission no. 55.2-1-54-2532-174-11). By visual inspection, the implantation site of FGF8b pellets and the surrounding adipose tissue was of a brown colour, while both the non-implanted contralateral depot and the implantation site of placebo pellets remained characteristically white (FIG. 6A). […]

[2] = test system: visceral, epididymal white adipocytes; experiment: Ucp1 / brown adipocyte marker mRNA (qPCR) in immortalized epididymal white adipocytes treated with FGFs; format: cell-based, murine
[3] = continuous treatment during differentiation, fully differentiated cells (FIG. 2B)
[4] = epididymal cells treated 48 hours during proliferation prior to induction
[5] = epididymal cells treated 48 hours during proliferation prior to induction, sampled acute to d6 p.i.

B1: FGF8b: murine recombinant paracrine fibroblast growth factor 8, major spliceform b (R&D Systems); amino acid sequence identical to human, SEQ ID NO:16/20 (protein)
chain: MGSPRSALSCLLLHLLVLCLQAQVTVQSSPNFTQHVREQSLVTDQLSRRLIRTYQLYSRTSGKHVQVLANKRINAMAEDGDPFAKLIVETDTFGSRVRVRGAETGLYICMNKKGKLIAKSNGKGKDCVFTEIVLENNYTALQNAKYEGWYMAFTRKGRPRKGSKTRQHQREVHFMKRLPRGHHTTEQSLRFEFLNYPPFTRSLRGSQRTWAPEPR
modifications: human FGF8b
[1]; fully differentiated inguinal cell line, treatment after induction for entire differentiation period of 6 days, screening concentration 25.0 ng/ml, untreated cells as control
  Ucp1 mRNA abundance, induction: 2.1 fold
[1]; inguinal adipocytes, six days of differentiation, FGF8a, b, e, f 25.0 ng/ml, FGF17 10.0 ng/ml
  Induction of Ucp1 mRNA expression (browning potential), screening of paracrine FGFs and FGF8 spliceforms: only isoform with browning potential
[1]; inguinal adipocytes, treatment during differentiation, smaller effect size than in epididymal
  Cidea mRNA abundance: increased
[1]; inguinal cells, different concentrations during entire differentiation phase of 6 days
  Ucp1 mRNA abundance, dose dependency: only the highest dose increased Ucp1 expression
[1]; inguinal cells, highest concentration tested, 6 days of differentiation
  Most effective concentration for Ucp1 induction: 125 ng/mL
[1]; inguinal cells, treatment during different days of proliferation, induction and/or differentiation
  Final Ucp1 mRNA abundance after full differentiation (responsiveness): only responsive to FGF8b treatment in their fully differentiated state
Inguinal adipose tissue
  Visual browning and expression of brown adipocyte marker genes: did not lead to visual browning or increased expression of brown adipocyte marker genes
[2]; [3]
  Cox7a1 mRNA: not or only slightly increased
  Elovl3 mRNA: not or only slightly increased
[2]; epididymal adipocytes, treatment during differentiation, greater effect size than in inguinal
  Cidea mRNA abundance: increased
[2]; [4]
  Cox7a1 mRNA abundance in mature adipocytes: increased
  Foxc2 mRNA abundance, acute response: do not acutely respond
  Prdm16 mRNA abundance, timecourse: transient increase in abundance directly following induction
  pRb mRNA abundance, acute response: do not acutely respond
[2]; [5]
  Cidea mRNA abundance, timecourse: already increasing on day 4 p.i.
  Elovl3 mRNA abundance, timecourse: already increasing on day 4 p.i.
[2]; epididymal cells treated 48 hours during proliferation prior to induction, sampled acute, d1, d2, d4, d6 p.i., normalized to untreated
  Ucp1 mRNA abundance, timecourse: increased 6 days after induction for the first time
[2]; epididymal cells treated 48 hours during proliferation, day 6 p.i.
  Pgc1a mRNA abundance after complete differentiation: increased Pgc1a mRNA abundance
[2]; epididymal cells treated 48 hours during proliferation, sample immediately after treatment
  Pgc1a mRNA abundance, acute: acutely downregulated
[2]; epididymal cells, comparably late treatment (fully differentiated state)
  Final Ucp1 mRNA abundance after full differentiation (responsiveness): respond
[2]; epididymal cells, treatment during the entire differentiation period
  Final Ucp1 mRNA abundance after full differentiation: strongest Ucp1 induction
